We go through 20 molecules from patent US20240101668A1.

Positions count from the first letter of the chain named.

B1: Polypeptide No. 236 (scFv, V domains shown)
VH: QVQLVQSGAEVKKPGSSVKVSCKASGGTFSSYAISWVRQAPGQGLEWMGGIIPILGIANYAQKFQGRVTITADESTSTAYMELSSLRSEDTAVYYCAHVDGYGMDVWGQGTTVTVSS
VL: EIVMTQSPATLSVSPGERATLSCRASQSVSSNLAWYQQKPGQAPRLLIYDVSSRATGIPARFSGSGSGTEFTLTISSLQSEDFAVYYCQQLDAYPLTFGGGTKVEIKR
B2: Polypeptide No. 232 (scFv, V domains shown)
VH: QVQLVQSGAEVKKPGASVKVSCKASGYTFTSYGIHWVRQAPGQGLEWMGGIIPIFGTASYAQKFQGRVTMTRDTSTSTVYMELSSLRSEDTAVYYCTRSNGIAAAGTHWYFDLWGRGTLVTVSS
VL: DIQMTQSPSSLSASVGDRVTITCRASQNIANSLNWYQQKPGKAPKLLIYAASSLQSGVPSRFSGSGSGTDFTLTISSLQPEDFATYYCQQYSSYPPTFGPGTKVDIKR
B3: Polypeptide No. 211 (scFv, V domains shown)
VH: EVQLLESGGGLVQPGGSLRLSCAASGFTFSNHYMSWVRQAPGKGLEWVSAIGAGGGTYYADSVKGRFTISRDNSKNTLYLQMNSLRAEDTAVYYCAKSSGYSYGRRPFDYWGQGTLVTVSS
VL: DIQMTQSPSSLSASVGDRVTITCRASQGISNNLAWYQQKPGKAPKLLIYAASTLHNGVPSRFSGSGSGTDFTLTISSLQPEDFATYYCQQYGRSPKTFGQGTKVEIKR
B4: Polypeptide No. 220 (scFv, V domains shown)
VH: QVQLVQSGAEVKKPGASVKVSCKASGYTFTGYYMYWVRQAPGQGLEWMGIINPRGGITSYAQRFQGRVTMTRDTSTSTVYMELSSLRSEDTAVYYCARGSTSSGWPNGDMDVWGKGTTVTVSS
VL: B3 VL with S30R, N32D, A34G, T53S, H55Q, N56S, Y91A, G92N, S94F, K96P
B5: Polypeptide No. 201 (scFv, V domains shown)
VH: QVQLVQSGAEVKKPGASVKVSCKASGGTFSSDGISWVRQAPGQGLEWMGWISAYHGHTNYAQKFQGRVTMTRDTSTSTVYMELSSLRSEDTAVYYCARGGKHSGSHRSYYYGMDVWGQGTTVTVSS
VL: DIQMTQSPSSLSASVGDRVTITCRASHNIGNKLAWYQQKPGKAPKLLIYGATTLQSGVPSRFSGSGSGTDFTLTISSLQPEDFATYYCQQANSFPRTFGPGTKVDIKR
B6: Polypeptide No. 227 (scFv, V domains shown)
VH: QVQLVQSGAEVKKPGSSVKVSCKASGYTLNELFMHWVRQAPGQGLEWVGGIIPMSGTTFYAQTFQGRVTITADESTSTAYMELSSLRSEDTAVYYCAKGVRQYSYGRYYYGMDVWGQGTLVTVSS
VL: DIQMTQSPSSLSASVGDRVTITCRASQSVSSYLNWYQQKPGKAPKLLIYGASNLQSGVPSRFSGSGSGTDFTLTISSLQPEDFATYYCQQSYTTPWTFGQGTRLEIKR
B7: Polypeptide No. 209 (scFv, V domains shown)
VH: EVQLLESGGGLVQPGGSLRLSCAASGFAFSSYVLHWVRQAPGKGLEWVAGIWVDGHNKDYADSVKGRFTISRDNSKNTLYLQMNSLRAEDTAVYYCAREFGAAGSFQHWGQGTLVTVSS
VL: DIQMTQSPSSLSASVGDRVTITCRASQSISTWLAWYQQKPGKAPKLLIYDASKLETGVPSRFSGSGSGTDFTLTISSLQPEDFATYYCQQSYTTPYTFGQGTKVEIKR
B8: Polypeptide No. 230 (scFv, V domains shown)
VH: QVQLVQSGAEVKKPGSSVKVSCKASGGTFSSNAINWVRQAPGQGLEWMGGIIPLFGTTNYAQKFQGRVTITADESTSTAYMELSSLRSEDTAVYYCARVLSGWYGTYYFDYWGQGTLVTVSS
VL: EIVMTQSPATLSVSPGERATLSCRASQSVSADYIAWYQQKPGQAPRLLIYDVSTRASGIPARFSGSGSGTEFTLTISSLQSEDFAVYYCQHYGSSQVTFGQGTKVEIKR
B9: Polypeptide No. 205 (scFv, V domains shown)
VH: QVQLVQSGAEVKKPGSSVKVSCKASGGSFISHTFSWVRQAPGQGLEWMGGIIPISGTANYAQKFQGRVTITADESTSTAYMELSSLRSEDTAVYYCAKGRGQLVGGYFQHWGQGTLVTVSS
VL: DIVMTQSPLSLPVTPGEPASISCRSSQSLLHSNGYNYLDWYLQKPGQSPQLLIYAASSLQSGVPDRFSGSGSGTDFTLKISRVEAEDVGVYYCMQALQTPLTFGQGTRLEIKR
B10: Polypeptide No. 250 (scFv, V domains shown)
VH: QVQLVQSGAEVKKPGSSVKVSCKASGYTLTSFAMHWVRQAPGQGLEWMGRIIPMSGTANYAQKFQGRVTITADESTSTAYMELSSLRSEDTAVYYCASTSPDQYYYGMDVWGQGTTVTVSS
VL: EIVMTQSPATLSVSPGERATLSCRASQSVGSSSLAWYQQKPGQAPRLLIYGASTRATGIPARFSGSGSGTEFTLTISSLQSEDFAVYYCQQYGSSPYTFGQGTKVEIKR
B11: Polypeptide No. 268 (scFv, V domains shown)
VH: QVQLVQSGAEVKKPGSSVKVSCKASGGTFSTYALSWVRQAPGQGLEWMGGVIPVFGTTDYAHKFQGRVTITADESTSTAYMELSSLRSEDTAVYYCASMIIFGAGGWDAYYFQEWGQGTLVTVSS
VL: B10 VL with G30N, S31N, S32N, S33Q, G51D, A52T, T54S, G93D, S94T
B12: Polypeptide No. 281 (scFv, V domains shown)
VH: QVQLVQSGAEVKKPGASVKVSCKASGYTFNSYGISWVRQAPGQGLEWMGIINPTGGSTTYAQKFQGRVTMTRDTSTSTVYMELSSLRSEDTAVYYCAKDPFVMDVWGQGTTVTVSS
VL: B10 VL with G30S, S33Y, G51D, T54A, T57A, G93Y, S95T, V105L
B13: Polypeptide No. 282 (scFv, V domains shown)
VH: QVQLVQSGAEVKKPGASVKVSCKASGGTFSSYAISWVRQAPGQGLEWMGWMNPNSGDTGYAQKFQGRVTMTRDTSTSTVYMELSSLRSEDTAVYYCARDFEGGGWFDPWGQGTLVTVSS
VL: B1 VL with Q27R, V29I, S31D, N32Y, V51A, L91Y, D92Y, A93T, Y94T, G100Q
B14: Polypeptide No. 276 (scFv, V domains shown)
VH: QVQLVQSGAEVKKPGSSVKVSCKASGYTFTRFNIHWVRQAPGQGLEWMGWLNPFTGNTGYARKFQGRVTITADESTSTAYMELSSLRSEDTAVYYCASSSSWYGWFDPWGQGTLVTVSS
VL: B1 VL with N32Y, V51T, S53T, L91Y, D92H, A93S, Y94S, L96W, G100Q
B15: Polypeptide No. 225 (scFv, V domains shown)
VH: QVQLVQSGAEVKKPGSSVKVSCKASGYTLTELSIHWVRQAPGQGLEWMGGIVPMSGTASYAQKFQGRVTITADESTSTAYMELSSLRSEDTAVYYCARRRDGYNSWGQGTLVTVSS
VL: DIVMTQSPDSLAVSLGERATINCKSSQSLLYGSKNYISWYQQKPGQPPKLLIYSSSTRESGVPDRFSGSGSGTDFTLTISSLQAEDVAVYYCQQYYTTPYTFGQGTKVEIKR
B16: Polypeptide No. 224 (scFv, V domains shown)
VH: QVQLVQSGAEVKKPGSSVKVSCKASGYTFTGYYMHWVRQAPGQGLEWMGVINPIYGTANYALKFQGRVTITADESTSTAYMELSSLRSEDTAVYYCAKAISSGWSNDAFDIWGQGTMVTVSS
VL: EIVMTQSPATLSVSPGERATLSCRASQSVSSDFLAWYQQKPGQAPRLLIYDTSSRASGIPARFSGSGSGTEFTLTISSLQSEDFAVYYCQQYAGPPTFGQGTRLEIKR
B17: Polypeptide No. 226 (scFv, V domains shown)
VH: QVQLVQSGAEVKKPGASVKVSCKASGYTFTGYYMHWVRQAPGQGLEWMGIIDPSGGSTSYAQKFQGRVTMTRDTSTSTVYMELSSLRSEDTAVYYCARDRSLLWSGVGGMDVWGQGTTVTVSS
VL: B6 VL with S28G, V29I, S31N, N34A, T93G, W96Y, R103K
B18: Polypeptide No. 245 (scFv, V domains shown)
VH: QVQLVQSGAEVKKPGSSVKVSCKASGYTFTGFYIHWVRQAPGQGLEWMGGVIPFFSRTIYAQKFQGRVTITADESTSTAYMELSSLRSEDTAVYYCAYGANGHLYGMDAWGQGTTVTVSS
VL: B10 VL with G30S, S33Y, G93S, Y97L
B19: Polypeptide No. 286 (scFv, V domains shown)
VH: QVQLVQSGAEVKKPGASVKVSCKASGYTFTSYGISWVRQAPGQGLEWMGWISPNSGVTNYAQKFQGRVTMTRDTSTSTVYMELSSLRSEDTAVYYCVSDDYGAFDYWGQGTLVTVSS
VL: B10 VL with G30S, S33Y, G51D, A52V, T57S, G93N, S94N, S95W, V105L
B20: Polypeptide No. 263 (scFv, V domains shown)
VH: QVQLVQSGAEVKKPGSSVKVSCKASGGTFSSYAISWVRQAPGQGLEWMGGIIPIVGVANYAQKLQGRVTITADESTSTAYMELSSLRSEDTAVYYCAKDIGGYPSDAFDIWGQGTTVTVSS
VL: B10 VL with G30S, S33Y, G51D, A52V, Y97I

The first assay has as its target huFLT3-M227 stably expressed on Ramos cells (human) (UniProt P36888). As to the kind of experiment: FACS on cells.
As to B1, the FACS geometric mean fold change over Jurkat parental is less than 2 fold. Same read-out and setting: in the case of B2 it was less than 2 fold; in that of B3, less than 2 fold. Same read-out and setting: in the case of B4 it was less than 2 fold; in that of B5, less than 2 fold. Same read-out and setting: in the case of B6 it was less than 2 fold.

Turning to B7, the FACS geometric mean fold change over Jurkat parental was less than 2 fold. Still for that read-out and setting: in the case of B8 it was less than 2 fold.

With B9, the FACS geometric mean fold change over Jurkat parental is less than 2 fold.

A further assay has as its target huFLT3-T227 stably expressed on Ramos cells (human) (UniProt P36888). As to the kind of experiment: FACS on cells.
On to B10, for which the FACS geometric mean fold change over Jurkat parental is less than 2 fold. Consider B11, for which the FACS geometric mean fold change over Jurkat parental was less than 2 fold.

On to B12, for which the FACS geometric mean fold change over Jurkat parental was less than 2 fold. Same read-out and setting: under B1 stands less than 2 fold; under B13, less than 2 fold.

Regarding B14, the FACS geometric mean fold change over Jurkat parental is less than 2 fold. Take B15: the FACS geometric mean fold change over Jurkat parental was less than 2 fold. The same measure, in the same setting: under B2 stands less than 2 fold. Turning to B3, the FACS geometric mean fold change over Jurkat parental was less than 2 fold. Still for that read-out and setting: in the case of B5 it was less than 2 fold; in that of B6, less than 2 fold. Same read-out and setting: under B16 stands less than 2 fold. Same read-out and setting: under B7 stands less than 2 fold; under B17, less than 2 fold; under B8, less than 2 fold. In the case of B18, the FACS geometric mean fold change over Jurkat parental was less than 2 fold. On the same count and under the same terms, under B19 stands less than 2 fold. Take B20: the FACS geometric mean fold change over Jurkat parental is less than 2 fold. For the molecule B9, the FACS geometric mean fold change over Jurkat parental was less than 2 fold.
